Target: human zalpha11 receptor (full-length, on cells) (human) (UniProt Q9HBE5)
Assay: cell-based or functional assay

Sequence of human zalpha11 Ligand-saporin immunotoxin conjugate (Q9HBE4 32-162): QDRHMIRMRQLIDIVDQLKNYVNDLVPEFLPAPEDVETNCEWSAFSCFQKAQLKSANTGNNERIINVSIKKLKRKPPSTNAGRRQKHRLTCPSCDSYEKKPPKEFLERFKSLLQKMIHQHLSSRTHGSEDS
Sequence of UniProt Q9HBE5 (Q9HBE5 20-538 limits assumed): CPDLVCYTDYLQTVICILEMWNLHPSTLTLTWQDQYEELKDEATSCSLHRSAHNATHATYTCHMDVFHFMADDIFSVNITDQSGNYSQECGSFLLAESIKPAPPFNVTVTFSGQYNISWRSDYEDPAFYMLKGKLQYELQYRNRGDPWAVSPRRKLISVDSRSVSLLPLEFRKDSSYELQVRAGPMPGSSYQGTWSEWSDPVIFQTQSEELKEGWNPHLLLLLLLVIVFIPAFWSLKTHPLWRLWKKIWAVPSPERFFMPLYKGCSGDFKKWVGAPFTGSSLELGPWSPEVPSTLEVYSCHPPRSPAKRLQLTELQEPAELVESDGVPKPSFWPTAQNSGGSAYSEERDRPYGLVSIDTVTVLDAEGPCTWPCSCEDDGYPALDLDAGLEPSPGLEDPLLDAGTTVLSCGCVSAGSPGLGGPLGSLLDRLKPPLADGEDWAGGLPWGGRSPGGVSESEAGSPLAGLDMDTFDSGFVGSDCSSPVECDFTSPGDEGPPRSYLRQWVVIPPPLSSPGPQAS

Substance: human zalpha11 Ligand-saporin immunotoxin conjugate
- growth inhibition of IM-9 cells at the maximal conjugate concentration (250 ng/ml), Alamar Blue: 79%
- growth inhibition of RAMOS cells at the maximal conjugate concentration (250 ng/ml), Alamar Blue: 65%

— patent US20070059825A1
